Literature values in article PMC11574045, “A cofactor-induced repressive type of transcription factor condensation can be induced by synthetic peptides to suppress tumorigenesis” (The EMBO Journal, 2024).
pKd: −log10 of the molar value.

Biological target: VGLL4 (Homo sapiens) (UniProt Q14135)
Conditions: cited from earlier work

Sequence of TEAD4 (Q15561 whole entry): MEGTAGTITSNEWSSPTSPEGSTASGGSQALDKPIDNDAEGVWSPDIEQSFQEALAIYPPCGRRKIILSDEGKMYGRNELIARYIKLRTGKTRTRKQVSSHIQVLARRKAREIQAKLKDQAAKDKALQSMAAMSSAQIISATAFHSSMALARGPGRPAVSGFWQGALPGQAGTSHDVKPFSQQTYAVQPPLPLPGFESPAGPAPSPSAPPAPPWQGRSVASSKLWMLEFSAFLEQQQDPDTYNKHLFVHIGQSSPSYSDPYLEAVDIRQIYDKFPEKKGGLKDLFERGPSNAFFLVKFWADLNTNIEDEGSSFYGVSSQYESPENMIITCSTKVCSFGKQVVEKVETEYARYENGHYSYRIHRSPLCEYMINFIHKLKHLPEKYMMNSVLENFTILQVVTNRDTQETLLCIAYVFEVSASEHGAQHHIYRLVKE
Sequence of VGLL4 (Homo sapiens) (Q14135 whole entry): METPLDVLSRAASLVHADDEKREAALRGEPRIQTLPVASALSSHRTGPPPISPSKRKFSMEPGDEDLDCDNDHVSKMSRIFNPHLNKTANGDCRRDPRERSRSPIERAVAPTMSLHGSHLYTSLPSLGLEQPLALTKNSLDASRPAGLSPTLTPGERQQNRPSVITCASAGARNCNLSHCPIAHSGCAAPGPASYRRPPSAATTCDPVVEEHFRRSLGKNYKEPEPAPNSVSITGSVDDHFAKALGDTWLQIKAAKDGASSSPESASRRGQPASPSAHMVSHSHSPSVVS

## TEAD4 (from UniProt Q15561)
  pKd: 8.17
